Measured values published in paper PMC6563293.
Like-named read-outs stand apart in the source and are kept apart here.

Tested on: MBP::P1 (Wheat streak mosaic virus (isolate Sidney 81))
Assay: EMSA

Row | Substance | K half (5' phosphate) | K half
1 | 21-nt GFP ds-siRNA | 0.03 nmol | –
2 | 24-nt GFP ds-siRNA | 0.03 nmol | –
3 | 180-nt GFP dsRNA | – | 0.03 nmol
